T1: murine IL-11 (Invigate, e.g., lot #C210819-09) (mouse, UniProt P47873 22-199)
T1 construct: Bought protein; biotinylated where captured on streptavidin plates; also called mIL-11; mIL11
T1 sequence: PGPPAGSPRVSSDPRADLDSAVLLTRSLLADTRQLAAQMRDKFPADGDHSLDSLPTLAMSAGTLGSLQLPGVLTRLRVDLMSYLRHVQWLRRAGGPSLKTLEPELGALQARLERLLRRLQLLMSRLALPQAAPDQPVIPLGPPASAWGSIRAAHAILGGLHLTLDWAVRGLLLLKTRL

T2: human IL-11 (Invigate, e.g., lot #C121021-19) (human, UniProt P20809 22-199)
T2 construct: Bought protein; also called hIL-11; hIL11
T2 sequence: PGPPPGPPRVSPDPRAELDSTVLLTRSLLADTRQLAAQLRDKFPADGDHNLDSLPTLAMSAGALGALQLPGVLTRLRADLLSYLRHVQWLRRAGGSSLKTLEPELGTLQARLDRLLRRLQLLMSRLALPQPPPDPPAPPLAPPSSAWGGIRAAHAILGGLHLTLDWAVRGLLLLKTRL


Experiments:
[1] = biological target: T1, murine IL-11 (Invigate, e.g., lot …); assay: Tri-complex ELISA: antibody titrated against 8 nM murine IL-11, 2 nM murine gp130-human-Fc and 2 nM murine IL11RA-murine-Fc
Method: (§1) In the Tri-complex ELISA format IL-11 antibodies are tested for their ability to inhibit the formation of a complex consisting of murine or human gp130-Fc fusion protein, with murine or human IL-11, and a murine IL11RA-Fc fusion protein. The assay format was adapted according to FIG. 18 (a, b), depending on whether murine or human IL-11 IgG antibodies were tested.
(§2) The assay was performed using High Binding microtiter plates (Greiner, #781077). In a first step, 25 μl of goat anti human IgG (Sigma, #12136), diluted 1:1000 in coating buffer (Candor, #121125) was coated on the plate at 4° C. overnight. Next day, the plate was washed one time with 50 μl PBST and then blocked with 50 μl SmartBlock (Candor, #113125) for one hour at room temperature (RT). […] After three additional washes of the coated and blocked microtiter plate with PBS-T, 25 μl of each mixture were added and the assay plate was incubated for one hour at room temperature. After three additional washes, anti-mouse-gp130 biotinylated antibody (R&D, #BAF468) or anti-human gp130 biotinylated antibody (R&D, #BAF228), both 1:1000 in 10% SmartBlock PBS-T, was added and incubated for 1 hour at RT. After three additional washes, a Streptavidin-Peroxidase conjugate (Sigma, #S5512) 1:1000 in SmartBlock PBS-T was added and incubated for one hour at room temperature. After a final three washes, AmplexRed (Fisher Scientific, A12222), 1/1000 in PBS, 0,003% H₂O₂, was added as substrate and incubated for 15 min at RT in the dark. Then, the fluorescence was measured with a plate reader at 535/595 nm. Signals from dose responses were used to calculate IC50 values using GraphPad Prism software.

[2] = biological target: T2, human IL-11 (Invigate, e.g., lot …); assay: Tri-complex ELISA: antibody titrated against 8 nM human IL-11, 2 nM human gp130-human-Fc and 2 nM murine IL11RA-murine-Fc
Method: as §1, §2

[3] = biological target: T1, murine IL-11 (Invigate, e.g., lot …); assay: SPR, Biacore T200, 25 C; antibody captured via anti-mouse Fc, IL-11 as analyte, 1:1 Langmuir fit
Method: (§3) Antibodies were captured via anti-mouse Fc IgGs (“Mouse antibody capture kit, Order No. BR100383, Cytiva) covalently amine coupled to a Series S CM5 sensor chip (Cytiva). The amine coupling was carried out according to the manufacturer's instructions using 1-ethyl-3-(3-dimethylaminopropyl) carbodiimide hydrochloride (EDC), N-hydroxysuccinimide (NHS) and ethanolamine HCl, pH 8.5 (“Amine Coupling Kit” BR-1000-50, Cytiva.). Human IL-11 (Invigate, e.g., lot #C121021-19), and murine IL-11 (Invigate, e.g., lot #C210819-09) were used as analytes. […] Based on that experiment an IL-11 concentration range was chosen to optimally determine kinetics and affinity of anti-IL-11 antibodies in multicycle kinetics mode. The sensor surface was regenerated with glycine pH 1.7 after each antigen injection. Obtained sensorgrams were double referenced (subtraction of reference flow cell signal and buffer injection) and were fitted to a 1:1 Langmuir binding model to derive kinetic data using the Biacore T200 Evaluation software or the Biacore Insight software.

[4] = biological target: T2, human IL-11 (Invigate, e.g., lot …); assay: as above
Method: as §3

[5] = biological target: T2, human IL-11 (Invigate, e.g., lot …); assay: Di-complex ELISA: biotinylated human IL-11 on streptavidin plate, antibody titrated against 2 nM canine IL11RA-human-Fc (competitor)
Method: (§4) In the Di-complex ELISA format anti IL-11 antibodies are tested for the ability to interfere with the formation of complexes consisting of immobilized murine IL-11 (Invigate, e.g., lot #C210819-09) or human IL-11 (Invigate, e.g., lot #C121021-19), and murine IL11RA-Fc fusion proteins or canine IL11RA-human-Fc fusion protein (FIG. 17a, b).
(§5) The assay is performed using streptavidin coated microtiter plates (Greiner bio-one, #781997). In a first step, 10 nM biotinylated mouse IL-11 (Invigate, Germany, e.g., lot #C210819-09) or human IL-11 (Invigate, Germany, e.g., lot #C121021-19) is coated in 25 μl PBS on the plate at 4° C. overnight. Next day, the plate is washed three times with 50 μl PBST and then blocked with 50 μl SmartBlock (Candor, #113125) for one hour at room temperature (RT). After additional three washes with PBST, 25 μl of a mixture of the murine anti IL-11 antibody and recombinant canine IL11RA-Fc fusion protein (Sino Biological, #70078-D02H) in PBS-T, 10% Smartblock are added simultaneously to the plate and incubated for one hour at RT. […] After three additional washes with PBS-T, 25 μl anti-human-POD (Sigma, #A0170) in PBS-T, 10% Smartblock is added and incubated for 1 hour at RT. After a final three washes with PBS-T, 25 μl AmplexRed (Fisher Scientific, A12222), 1/1000 in PBS, 0,003% H₂O₂, is added as substrate and incubated for 15 min at RT in the dark. Then, the fluorescence is measured with a plate reader at 535/595 nm. Signals from dose responses were used to calculate IC50 values (GraphPad Prism). Efficacy was calculated as [(signal measured at lowest antibody concentration−signal measured at the highest antibody concentration)×100] divided by (signal measured at lowest antibody concentration−signal measured in the absence of IL11Ra).

[6] = biological target: T1, murine IL-11 (Invigate, e.g., lot …); assay: cell-based or functional assay
[7] = biological target: T2, human IL-11 (Invigate, e.g., lot …); assay: cell-based or functional assay
[8] = biological target: T1, murine IL-11 (Invigate, e.g., lot …); assay: Di-complex ELISA: biotinylated murine IL-11 on streptavidin plate, antibody titrated against 2 nM canine IL11RA-human-Fc (competitor)
Method: as §4, §5

Efficacy (%) [1] [%] | IC50 [1] [nM] | Efficacy (%) [2] [%] | Kd [3] [nM] | Kd [4] [nM] | Efficacy (%) [5] [%] | Efficacy (%), Stat3 reporter gene assay, mouse Il11ra, 3.13 nM mIL-11 [6] [%] | IC50 [M], Stat3 reporter gene assay, HEK 293F transfected with mouse Il11ra, 3.13 nM mIL-11 [6] [M] | Efficacy (%), Stat3 reporter gene assay, human IL11RA, 0.78 nM hIL-11 [7] [%] | IC50 [M], Stat3 reporter gene assay, HEK 293F transfected with human IL11RA, 0.78 nM hIL-11 [7] [M] | Efficacy (%) [8] [%] | IC50 [8] [nM] | IC50 [2] [nM] | IC50 [5] [nM] | Binder
37.1 | 66 | 7.3 | 0.72 | 48 | 19.6 | 84.1 | 2.67e-09 | 20.7 | 4.83e-09 | 72.7 | 2.5 | – | – | TPP-18068 (antibody, mouse IgG1, mIgG1, Lambda) heavy: EVQLLESGGGLVQPGGSLRLSCAASGFTFSSYGMHWVRQAPGKGLEWVSVISYDGSYKYYADSVKGRFTISRDNSKNTLYLQMNSLRAEDTAVYYCAAGVPDYWGQGTLVTVSSAKTTPPSVYPLAPGSAAQTNSMVTLGCLVKGYFPEPVTVTWNSGSLSSGVHTFPAVLQSDLYTLSSSVTVPSSTWPSETVTCNVAHPASSTKVDKKIVPRDCGCKPCICTVPEVSSVFIFPPKPKDVLTITLTPKVTCVVVDISKDDPEVQFSWFVDDVEVHTAQTQPREEQFNSTFRSVSELPIMHQDWLNGKEFKCRVNSAAFPAPIEKTISKTKGRPKAPQVYTIPPPKEQMAKDKVSLTCMITDFFPEDITVEWQWNGQPAENYKNTQPIMDTDGSYFVYSKLNVQKSNWEAGNTFTCSVLHEGLHNHHTEKSLSHSPGK light: QSVLTQPPSASGTPGQRVTISCTGSSSNIGAGYDVHWYQQLPGTAPKLLIYSNNERPSGVPDRFSGSKSGTSASLAISGLRSEDEADYYCAAWDDSLNGPVFGGGTKLTVLGQPKSSPSVTLFPPSSEELETNKATLVCTITDFYPGVVTVDWKVDGTPVTQGMETTQPSKQSNNKYMASSYLTLTARAWERHSSYSCQVTHEGHTVEKSLSRADCS
36.3 | 170 | 60.6 | 10 | 53 | 42 | 60 | 9.5e-08 | 54.3 | 1.1e-07 | 68.9 | 12 | 92 | 54 | TPP-18063 (antibody, mouse IgG1, V domains shown, mIgG1, Lambda) VH: EVQLLESGGGLVQPGGSLRLSCAASGFTFSDYYMSWIRQAPGKGLEWVSGINWNGGSTGYADSVKGRFTISRDNSKNTLYLQMNSLRAEDTAVYYCATWDGPFDYWGQGTLVTVSS VL: QSVLTQPPSASGTPGQRVTISCTGSSSNIGAGYDVHWYQQLPGTAPKLLIYYDDLLPSGVPDRFSGSKSGTSASLAISGLRSEDEADYYCQSYDSSLGGSVFGGGTKLTVLG

— patent US20240317847A1 (Bayer, published 2024)
